Consider one substance from paper PMC3963495.

The target in the experiment is microtubules (polymer of tubulin). In words: single-molecule TIRF microscopy on microtubules.
Chain of microtubules (polymer of tubulin) (P68363 whole entry, chain 1 of 2): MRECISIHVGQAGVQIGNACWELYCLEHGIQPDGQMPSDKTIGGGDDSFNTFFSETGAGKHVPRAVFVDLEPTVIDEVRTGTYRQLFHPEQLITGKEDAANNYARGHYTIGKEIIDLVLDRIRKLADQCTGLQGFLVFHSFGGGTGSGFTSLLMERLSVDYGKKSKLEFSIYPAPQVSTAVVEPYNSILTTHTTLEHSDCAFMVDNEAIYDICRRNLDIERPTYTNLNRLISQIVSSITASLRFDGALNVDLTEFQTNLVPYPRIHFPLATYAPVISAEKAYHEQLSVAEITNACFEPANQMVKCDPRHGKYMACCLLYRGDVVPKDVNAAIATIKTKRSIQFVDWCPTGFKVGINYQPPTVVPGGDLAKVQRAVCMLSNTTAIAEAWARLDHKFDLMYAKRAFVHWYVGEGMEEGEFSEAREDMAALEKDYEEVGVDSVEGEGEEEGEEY
Chain of microtubules (polymer of tubulin) (A8K068 whole entry, chain 2 of 2, further chain): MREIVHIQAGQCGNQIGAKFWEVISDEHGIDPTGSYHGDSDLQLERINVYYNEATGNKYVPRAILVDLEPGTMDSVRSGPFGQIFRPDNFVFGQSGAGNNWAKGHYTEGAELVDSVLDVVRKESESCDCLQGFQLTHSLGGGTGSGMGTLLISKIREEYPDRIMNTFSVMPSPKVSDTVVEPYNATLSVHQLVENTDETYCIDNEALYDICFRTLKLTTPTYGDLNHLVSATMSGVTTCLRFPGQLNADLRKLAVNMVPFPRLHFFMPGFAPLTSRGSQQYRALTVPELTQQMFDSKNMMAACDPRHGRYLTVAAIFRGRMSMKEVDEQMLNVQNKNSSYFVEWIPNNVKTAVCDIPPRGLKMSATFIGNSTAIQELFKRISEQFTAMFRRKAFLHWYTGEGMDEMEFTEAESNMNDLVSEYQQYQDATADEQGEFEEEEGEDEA

“EB1_(FKBP) (human EB1 fused at its C-terminus to FKBP)”: the dwell time is 53 ms and the mean dwell time is 0.054 s.
